Source: publication PMC6971075, “Augmentation of Bri2 molecular chaperone activity against amyloid-β reduces neurotoxicity in mouse hippocampus in vitro” (Communications Biology, 2020)

T1: rh wild-type Bri2 BRICHOS-mCherry (human, UniProt Q9Y287 113-231)
T1 construct: Bri2 BRICHOS domain, human (rh = recombinant human), Bri2 residues 113-231; Used as isolated oligomers; also called rh Bri2 BRICHOS-mCherry; source: E. coli SHuffle T7, purified (same protocol as R221E; oligomers isolated on Superdex 200 PG); not shown: His6, N-terminal, cleaved; NT*, N-terminal, cleaved; mCherry, C-terminal, kept
T1 sequence (looked up): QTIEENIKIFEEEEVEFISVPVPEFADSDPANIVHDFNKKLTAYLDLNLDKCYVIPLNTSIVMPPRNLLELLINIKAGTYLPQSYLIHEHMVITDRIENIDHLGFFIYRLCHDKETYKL


Legend:
[1] = biological target: the molecule itself; experiment: SEC; isolated monomers at low concentration (~7.5 µM) and high concentrations (54 µM for R221E, 30 µM for wt)
[2] = biological target: T1, rh wild-type Bri2 BRICHOS-mCherry; experiment: not stated; coincubation of R221E monomers with Bri2 BRICHOS-mCherry oligomers at rising molar ratios; release of wild-type monomers followed (Supplementary Fig. 5); details: both partners purified

Row | Binder | stoichiometry N [1] | molar ratio of mutant to wild-type oligomers at which the release of wild-type monomers saturates [2] [mol/mol]
1 | rh wild-type Bri2 BRICHOS (domain or fragment, human, UniProt Q9Y287 113-231, looked up, Bri2 BRICHOS domain, human (rh = recombinant human), Bri2 residues 113-231; also called rh wt Bri2 BRICHOS; wild-type monomers; source: E. coli SHuffle T7, purified (Ni-NTA, thrombin cleavage, second Ni-NTA, SEC); not shown: His6, N-terminal, cleaved; NT*, N-terminal, cleaved) QTIEENIKIFEEEEVEFISVPVPEFADSDPANIVHDFNKKLTAYLDLNLDKCYVIPLNTSIVMPPRNLLELLINIKAGTYLPQSYLIHEHMVITDRIENIDHLGFFIYRLCHDKETYKL | 2 | –
2 | rh Bri2 BRICHOS R221E monomer (domain or fragment, human, UniProt Q9Y287 113-231, looked up, intramolecular disulfide bond between the two conserved Cys (monomer, by ESI-MS), Bri2 BRICHOS domain, human (rh = recombinant human), Bri2 residues 113-231, with R221E; Used here for the isolated monomer and as the subunit in the rows on self-association (oligomers, dimers); Measured mass 14,050.2 Da; also called rh Bri2 R221E monomer; source: E. coli SHuffle T7, purified (Ni-NTA, thrombin cleavage, second Ni-NTA, SEC); not shown: His6, N-terminal, cleaved; NT*, N-terminal, …) QTIEENIKIFEEEEVEFISVPVPEFADSDPANIVHDFNKKLTAYLDLNLDKCYVIPLNTSIVMPPRNLLELLINIKAGTYLPQSYLIHEHMVITDRIENIDHLGFFIYELCHDKETYKL | – | ~2
